Test results: patent publication EP3470428A1 (Numab Innovation AG, dated 2019)

Columns and labels:
biotinylated human PD-L1 [1] = molecular target: T1, biotinylated human PD-L1 (human, UniProt Q9NZQ7 19-238, limits assumed, biotinylated); experiment: competition ELISA; coated human PD-1 as competitor; biotinylated human PD-L1 pre-incubated with inhibitor
T1 construct: also called biotinylated PD-L1

biotinylated human PD-L1 [2] = molecular target: T1, biotinylated human PD-L1; experiment: competition ELISA; coated human B7.1 as competitor; biotinylated PD-L1 pre-incubated with inhibitor
[3] = molecular target: T2, human CD137 expressed on cells (human, UniProt Q07011 24-255); experiment: cell-based or functional assay
[4] = molecular target: T2, human CD137 expressed on cells; experiment: cell-based or functional assay; remark: listed apart in the source
biotinylated human PD-L1 [5] = molecular target: T1, biotinylated human PD-L1; experiment: PD-L1/PD-1 competition ELISA with human serum albumin
human serum albumin = molecular target: T3, human serum albumin (human, UniProt P02768 25-609); experiment: SPR (Biacore T200); SA amine-coupled; pH 5.5
T3 construct: Amine-coupled to a CM5 chip; assay at pH 5.5; also called HSA; human SA

[6] = molecular target: T2, human CD137 expressed on cells; experiment: cell-based or functional assay; remark: listed apart in the source
[7] = molecular target: T2, human CD137 expressed on cells; experiment: cell-based or functional assay; remark: listed apart in the source
[8] = molecular target: human PD-L1 expressed on cells (human, UniProt Q9NZQ7 19-290); experiment: cell-based or functional assay

B1: PRO1057: 38_02_A04 sc01 scDb-i/33-03-G02 sc01 scDb-o/mxr HSA (23-13-A01-sc03, sk17sh4) (other)
chain: DIQMTQSPSSLSASVGDRVTITCQASQSINDYLAWYQQKPGKAPKLLIYKASTLASGVPSRFSGSGSGTDFTLTISSLQPEDFATYYCQQGYIITDIDNVFGTGTKVTVLGGGGGSQVQLQESGPGLVKPSETLSLTCKVSGFSFSNSYWICWIRQPPGKGLEWIGCTFVGSSDSTYYANWAKGRVTISVDSSKNQFSLKLSSVTAADTAVYYCARHPSDAVYGYANNLWGQGTLVTVSSGGGGSGGGGSGGGGSGGGGSIQMTQSPSSLSASVGDRVTITCQASQSINNVLAWYQQKPGKAPKLLIYRASTLASGVPSRFSGSGSGTDFTLTISSLQPEDFATYYCQSSYGNYGDFGTGTKVTVLGGGGGSQVQLQESGPGLVKPSETLSLTCKVSGFSFSSGYDMCWIRQPPGKGLEWIGCVVAGSVDITYYASWAKGRVTISVDSSKNQFSLKLSSVTAADTAVYYCARKDAYSDAFNLWGQGTLVTVSSGGGGSGGGGSVVMTQSPSSLSASVGDRVTITCQASQIISSRSAWYQQKPGQPPKLLIYQASKLASGVPSRFSGSGSGTDFTLTISSLQPEDFATYYCQCTYIDSNFGAFGGGTKLTVLGGGGGSGGGGSGGGGSGGGGSEVQLVESGGGLVQPGGSLRLSCAASGFSFSSSYWICWVRQAPGKGLEWVGCVFTGDGTTYYASWAKGRFTISRDNSKNTVYLQMNSLRAEDTATYFCARPVSVYYYGMDLWGQGTLVTVSS
notes: Trispecific scTriabody (scDb-scFv)
IC50 (biotinylated human PD-L1 [1]): 0.00861 µg/mL | IC50 (biotinylated human PD-L1 [2]): 0.0163 µg/mL | EC50 in ng/ml, CD137 activation, NFkB-luciferase Jurkat reporter assay, PD-L1 expressing CHO cells, 24h, + HSA [3]: 792 ng/mL | max. activation (%), NF-kB reporter gene, CHO-PD-L1; HSA: yes, 24h [4]: 663% | fold change of IC50 in presence of human serum albumin (biotinylated human PD-L1 [5]): ~2 fold | binding result (human serum albumin): binds | EC50 in ng/ml, CD137 activation, NFkB-luciferase Jurkat reporter assay, HCC827 with IFNy stimulation, 24h, +HSA [6]: 115 ng/mL | EC50 in ng/ml, CD137 activation, NFkB-luciferase Jurkat reporter assay, HCC827 without IFNy stimulation, 24h, +HSA [6]: 76.6 ng/mL | EC50 in ng/ml, CD137 activation, NFkB-luciferase Jurkat reporter assay, PD-L1 expressing CHO cells, 6h, + HSA [7]: 112 ng/mL | IC50 (ng/ml), neutralization of PD-L1/PD-1 interaction, NFAT-luciferase reporter gene assay, with HSA [8]: 665 ng/mL
